Test results from patent US20220135701A1 (Genentech, published 2022).
Read-outs that look alike come from different tables or passages of the source.

B1: h10C3.v1 (antibody, V domains shown)
VH: EQQLVESGGGLVQPGGSLRLSCAASGFSLSGYTMGWVRQAPGKGLEYIGVISSGGTTYYTNWAKGRFTISKDSSKNTVYLQMGSLRAEDMAVYFCARVAFTAYGGGGFPTLHRLDLWGQGTLVTVSS
VL: DQVLTQSPDSLAVSLGERATINCQSSESVYNNDYLAWYQQKPGQPPKLLIYSASTLASGVPDRFSGSGSGTDFTLTISSLQAEDVAVYYCAGGYLGNNVFGGGTKVEIK
notes: also called h10C3.V1 (Parent); 10C3 Humanized mAb V1
B2: h13B4.v1 (antibody, V domains shown)
VH: EQQLVESGEGLVQPGGSLRLSCAVSGFSLSSYAMGWVRQAPGKGLEWIGIINSYGNTYYANWAKGRFTISRDSSKNTVYLQMGSLRAEDMAVYFCARDPGVSSNLWGPGTLVTVSS
VL: DVQMTQSPSTLSASVGDRVTITCQASQNIYSGLAWYQQKPGKPPKLLIYGASKLASGVPSRFSGSGSGTEFTLTISSLQPDDFATYYCQATYYSSNSVAFGGGTKVEIK
notes: also called h13B4.V1 (Parent); 13B4 Humanized mAb V1
B3: Rbt10C3 (antibody, V domains shown)
VH: QSLEESGGRLVTPGTPLTLTCTASGFSLSGYTMGWVRQAPGKGLEYIGVISSGGTTYYTNWAKGRFTISKTSTTVDLKITSPTTEDTATYFCARVAFTAYGGGGFPTLHRLDLWGQGTLVTVSS
VL: AQVLIQTASSVSAAVGGTVTISCQSSESVYNNDYLAWYQQKPGQPPKLLIYSASTLASGVPSRFKGSGSGTQFTLTISDLECDDAATYYCAGGYLGNNVFGGGTEVVVK
notes: Recombinant rabbit monoclonal antibody, Expi293, protein A purified

Tests used:
[1] = target: T1, human MerTK (human, UniProt Q12866 26-499); experiment: SPR BIAcore T200, Ab captured, 37C
T1 construct: also called HuMER
T1 sequence: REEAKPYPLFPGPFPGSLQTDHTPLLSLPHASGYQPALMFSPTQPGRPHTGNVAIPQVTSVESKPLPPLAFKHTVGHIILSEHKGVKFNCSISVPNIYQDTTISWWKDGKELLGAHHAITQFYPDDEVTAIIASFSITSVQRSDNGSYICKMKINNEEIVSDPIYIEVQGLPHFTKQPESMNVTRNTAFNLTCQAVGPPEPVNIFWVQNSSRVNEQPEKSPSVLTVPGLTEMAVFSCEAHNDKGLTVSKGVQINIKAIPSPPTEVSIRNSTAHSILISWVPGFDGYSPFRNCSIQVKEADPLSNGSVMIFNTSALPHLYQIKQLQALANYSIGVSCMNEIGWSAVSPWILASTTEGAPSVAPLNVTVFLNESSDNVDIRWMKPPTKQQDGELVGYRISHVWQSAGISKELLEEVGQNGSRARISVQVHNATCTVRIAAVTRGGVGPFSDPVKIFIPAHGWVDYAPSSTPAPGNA

[2] = target: T1, human MerTK; experiment: SPR BIAcore T200, Ab captured, 37C; remark: listed apart in the source
Procedure: (§1) All binding affinity determinations were obtained using Surface Plasmon Resonance (SPR) measurements from a BIAcore™-T200 instrument. Briefly, each rabbit or humanized antibody was captured to achieve approximately 100 RU (Response Units). Then, 3-fold serial dilutions of MerTK from various species (0.4 nM to 100 nM) diluted in HBS-EP buffer (0.01M HEPES pH 7.4, 0.15M NaCl, 3 mM EDTA and 0.05% v/v surfactant P20) was injected into the BIAcore™-T200 instrument at 25° C. or 37° C. with a flow rate of 30 μl/min. Association rates (kₒₙ) and dissociation rates (koff) were calculated using a simple one-to-one Langmuir binding model (BIAcore T200 evaluation software version 2.0). The equilibrium dissociation constant (KD) was calculated as the ratio koff/kₒₙ.

[3] = target: T2, cynomolgus monkey MerTK (cynomolgus monkey, UniProt A0A2K5V1H9 32-505); experiment: SPR BIAcore T200, Ab captured, 37C
T2 construct: Soluble analyte in SPR; also called Cyno MerTK
T2 sequence: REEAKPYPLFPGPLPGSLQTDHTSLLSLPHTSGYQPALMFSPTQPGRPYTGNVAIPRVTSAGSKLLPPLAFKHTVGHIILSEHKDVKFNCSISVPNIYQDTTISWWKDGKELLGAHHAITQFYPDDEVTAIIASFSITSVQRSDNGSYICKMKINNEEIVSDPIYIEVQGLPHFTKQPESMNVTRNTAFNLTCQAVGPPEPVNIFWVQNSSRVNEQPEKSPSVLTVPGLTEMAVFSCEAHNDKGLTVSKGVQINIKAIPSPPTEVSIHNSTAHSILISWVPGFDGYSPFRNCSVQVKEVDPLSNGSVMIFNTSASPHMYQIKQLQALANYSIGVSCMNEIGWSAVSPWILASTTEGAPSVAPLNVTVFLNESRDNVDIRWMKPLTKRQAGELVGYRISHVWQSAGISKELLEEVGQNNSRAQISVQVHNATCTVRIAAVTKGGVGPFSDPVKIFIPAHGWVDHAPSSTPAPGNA
Procedure: as §1

[4] = target: T3, rat MerTK (rat, UniProt P57097 23-496, limits assumed); experiment: SPR BIAcore T200, Ab captured, 37C
T3 construct: Soluble analyte in SPR
T3 sequence (looked up): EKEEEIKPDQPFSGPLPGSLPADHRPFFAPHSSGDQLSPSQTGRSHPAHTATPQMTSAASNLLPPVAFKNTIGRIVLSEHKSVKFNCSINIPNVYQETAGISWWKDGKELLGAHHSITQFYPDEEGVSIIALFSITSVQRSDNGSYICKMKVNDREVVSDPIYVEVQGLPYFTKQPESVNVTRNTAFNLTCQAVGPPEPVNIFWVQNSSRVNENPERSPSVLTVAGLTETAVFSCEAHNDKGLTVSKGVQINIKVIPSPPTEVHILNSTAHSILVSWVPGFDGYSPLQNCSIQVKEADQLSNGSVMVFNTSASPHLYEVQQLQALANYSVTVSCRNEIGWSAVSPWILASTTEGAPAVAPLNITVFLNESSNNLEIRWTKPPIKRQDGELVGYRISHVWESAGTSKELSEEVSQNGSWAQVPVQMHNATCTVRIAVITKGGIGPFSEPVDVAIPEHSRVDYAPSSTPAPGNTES
Procedure: as §1

[5] = target: T4, mouse MerTK (mouse, UniProt Q60805 23-496); experiment: SPR BIAcore T200, Ab captured, 37C
T4 construct: also called MuMER
T4 sequence (looked up): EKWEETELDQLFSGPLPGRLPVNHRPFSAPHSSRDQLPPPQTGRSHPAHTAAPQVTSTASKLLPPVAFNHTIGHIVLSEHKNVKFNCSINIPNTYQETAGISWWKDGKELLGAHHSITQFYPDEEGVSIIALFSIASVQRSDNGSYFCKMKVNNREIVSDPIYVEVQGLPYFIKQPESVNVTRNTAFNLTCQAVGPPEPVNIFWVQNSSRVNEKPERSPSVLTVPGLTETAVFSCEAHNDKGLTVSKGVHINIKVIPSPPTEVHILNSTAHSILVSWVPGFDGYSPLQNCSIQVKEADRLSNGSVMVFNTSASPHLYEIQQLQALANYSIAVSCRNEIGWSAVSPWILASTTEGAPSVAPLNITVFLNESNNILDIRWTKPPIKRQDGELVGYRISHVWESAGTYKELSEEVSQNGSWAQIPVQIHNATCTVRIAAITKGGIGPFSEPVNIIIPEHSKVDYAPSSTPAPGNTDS
Procedure: as §1

[6] = target: T1, human MerTK; experiment: SPR BIAcore T200, Ab captured, 37C; remark: listed apart in the source
Method in brief: (§2)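 Rabbit or humanized antibody captured to ~100 RU; MerTK injected as 3-fold dilutions from 0.4 nM to 100 nM in HBS-EP (HEPES pH 7.4) at 30 μl/min, at 25° C. or 37° C. kon and koff fitted to a 1:1 Langmuir model; KD = koff/kon.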

[7] = target: T2, cynomolgus monkey MerTK; experiment: SPR BIAcore T200, Ab captured, 37C; remark: listed apart in the source
Method in brief: as §2

[8] = target: T3, rat MerTK; experiment: SPR BIAcore T200, Ab captured, 37C; remark: listed apart in the source
Method in brief: as §2

[9] = target: T4, mouse MerTK; experiment: SPR BIAcore T200, Ab captured, 37C; remark: listed apart in the source
Method in brief: as §2

[10] = target: T1, human MerTK; experiment: SPR BIAcore T200, Ab captured, 37C; remark: listed apart in the source
Procedure: as §1

[11] = target: T2, cynomolgus monkey MerTK; experiment: SPR BIAcore T200, Ab captured, 37C; remark: listed apart in the source
Procedure: as §1

[12] = target: T1, human MerTK; experiment: SPR BIAcore T200, Ab captured, 25C
Method in brief: as §2

[13] = target: T2, cynomolgus monkey MerTK; experiment: SPR BIAcore T200, Ab captured, 25C
Method in brief: as §2

[14] = target: T4, mouse MerTK; experiment: SPR BIAcore T200, Ab captured, 25C
Method in brief: as §2

[15] = target: T5, HuMER (R26-A499) (human, UniProt Q12866 26-499); experiment: SPR BIAcore T200, Ab captured, 25C
T5 construct: Extracellular domain with both Ig-like and both fibronectin-like domains; also called human MerTK extracellular domain
T5 sequence: T1 sequence
Method in brief: (§3)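 Rabbit antibody captured to ~100 RU; MerTK domain injected as 3-fold dilutions (0.4–100 nM) in HBS-EP pH 7.4 at 25 °C, 30 μl/min. kon and koff from 1:1 Langmuir fit; KD = koff/kon.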

[16] = target: T6, MuMER (E23-S496) (mouse, UniProt Q60805 23-496); experiment: SPR BIAcore T200, Ab captured, 25C
T6 construct: range 23-496; also called mouse MerTK extracellular domain
T6 sequence (looked up): T4 sequence (looked up)
Method in brief: as §3

Row | Binder | Kd [1] [nM] | Kd [2] [nM] | Kd [3] [nM] | Kd [4] [nM] | Kd [5] [nM] | Kd [6] [nM] | Kd [7] [nM] | Kd [8] [nM] | Kd [9] [nM] | Kd [10] [nM] | Kd [11] [nM] | Kd [12] [nM] | Kd [13] [nM] | Kd [14] [nM] | Kd [15] [nM] | Kd [16] [nM]
1 | B1 | 13.8 | 12.9 | 5.3 | 3.3 | 1.1 | 11.6 | 5.3 | 3.3 | 1 |  |  |  |  |  |  | 
2 | B2 | 4.8 |  |  |  |  | 4.8 | 5.6 |  |  | 4.3 | 5 |  |  |  |  | 
3 | B3 |  | 9.9 | 4.1 | 2.4 | 0.8 |  |  |  |  |  |  | 3.4 | 3 | 0.7 | 3.4 | 0.7
